The values that follow come from paper PMC3999280.

This data set concerns the target LdtRLas ('Candidatus Liberibacter asiaticus', UniProt A0ABN4AZS1 1-171). Kind of data set: competition. The settings on record: protein: recombinant; tags: N-terminal His6 removed by TEV; chain copies: 2; label: none; blunt.

B1: CD-3 (dsDNA)
DNA 1: TCTTCTAATATTCCTTGTATTTTAATTATGTTCGAATTTTATTTT
DNA 2: AAAATAAAATTCGAACATAATTAAAATACAAGGAATATTAGAAGA
As to B1, the binding result is “binds”.
